# Reference: patent US20220298257A1 (ELPIS BIOPHARMACEUTICALS, published 2022)
# Where a chain is given by its changes, count along the chain named.
# T1: full-length human CD22 fused with flag and Myc tags at the C-terminus, on HEK293 or K562 cells (human, UniProt P20273 20-847)
# T1 construct: whole, on cells; also called CD22/K562; CD22/HEK293; not shown: C-terminal flag and Myc tags of the pCMV6-Entry vector
# T1 sequence (looked up): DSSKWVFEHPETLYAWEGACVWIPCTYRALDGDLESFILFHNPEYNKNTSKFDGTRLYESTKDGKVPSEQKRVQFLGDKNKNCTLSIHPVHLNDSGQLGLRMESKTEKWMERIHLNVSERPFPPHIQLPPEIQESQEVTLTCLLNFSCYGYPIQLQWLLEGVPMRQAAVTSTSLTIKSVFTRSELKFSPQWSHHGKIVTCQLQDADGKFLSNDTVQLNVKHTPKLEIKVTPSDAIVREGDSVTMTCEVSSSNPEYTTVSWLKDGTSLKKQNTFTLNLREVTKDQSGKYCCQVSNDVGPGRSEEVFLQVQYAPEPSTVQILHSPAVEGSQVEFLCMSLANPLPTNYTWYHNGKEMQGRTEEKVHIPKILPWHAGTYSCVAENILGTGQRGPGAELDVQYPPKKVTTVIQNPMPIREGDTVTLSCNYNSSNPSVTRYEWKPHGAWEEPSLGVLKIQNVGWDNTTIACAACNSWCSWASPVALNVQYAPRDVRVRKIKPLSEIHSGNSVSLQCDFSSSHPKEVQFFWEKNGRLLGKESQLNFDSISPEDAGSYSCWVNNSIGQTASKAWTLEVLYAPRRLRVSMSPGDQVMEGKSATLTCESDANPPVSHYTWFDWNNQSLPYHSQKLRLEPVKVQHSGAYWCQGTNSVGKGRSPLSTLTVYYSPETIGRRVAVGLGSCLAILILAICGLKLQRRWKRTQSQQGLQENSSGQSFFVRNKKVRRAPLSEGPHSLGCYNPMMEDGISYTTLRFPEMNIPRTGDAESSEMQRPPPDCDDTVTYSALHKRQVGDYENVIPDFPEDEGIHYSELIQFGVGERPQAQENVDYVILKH
# T2: human CD22-Fc fusion protein (human, UniProt P20273 20-687, limits assumed)
# T2 construct: also called recombinant CD22-Fc fusion protein; not shown: Fc part
# T2 sequence (looked up): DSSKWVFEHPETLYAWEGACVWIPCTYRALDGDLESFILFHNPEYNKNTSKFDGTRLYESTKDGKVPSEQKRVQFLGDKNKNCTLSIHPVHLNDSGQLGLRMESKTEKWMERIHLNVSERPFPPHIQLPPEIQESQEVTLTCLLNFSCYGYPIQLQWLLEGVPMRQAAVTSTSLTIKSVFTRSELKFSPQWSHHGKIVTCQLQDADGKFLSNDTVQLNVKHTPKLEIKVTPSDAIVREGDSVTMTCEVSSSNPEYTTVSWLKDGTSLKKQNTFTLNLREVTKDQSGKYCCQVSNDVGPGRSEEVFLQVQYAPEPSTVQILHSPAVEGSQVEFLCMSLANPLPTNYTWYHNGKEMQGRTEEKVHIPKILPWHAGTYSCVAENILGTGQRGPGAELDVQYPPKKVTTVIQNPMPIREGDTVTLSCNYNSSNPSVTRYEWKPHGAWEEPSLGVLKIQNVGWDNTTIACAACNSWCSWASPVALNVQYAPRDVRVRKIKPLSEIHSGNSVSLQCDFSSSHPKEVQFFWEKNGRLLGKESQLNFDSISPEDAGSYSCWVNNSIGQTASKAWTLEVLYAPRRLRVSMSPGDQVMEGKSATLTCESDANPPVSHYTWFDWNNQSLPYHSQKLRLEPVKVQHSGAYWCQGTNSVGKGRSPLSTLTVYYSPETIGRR
# B1: EP160-H02 scFv (scFv)
# scFv: QVQLVQSGAEVKKPGASVKVSCKASGYTFTSYGISWVRQAPGQGLEWMGGIIAYNGNTNYAQKLQGRVTMTTDTSTSTAYMELRSLRSDDTAVYYCARDPPEYSSSAGTDYWGQGTLVTVSSGGGGSGGGGSGGGGSEIVMTQSPATLSVSPGEGVTLSCRASQSVSSNLAWYQQRPGQAPRLLIYGASIKATDVPDRFSGGGSGTDFTLSITNLQSEDFAVYYCQQYHTWSPVTFGGGTKVEIK
# notes: VH-VL orientation; not shown: C-terminal flag and 6xHIS tag
# B2: EP35-A7 scFv (scFv)
# scFv: EVQLVESRGGVVQPGGSLRLSCAASGFTFSSYGMHWVRQAPGKGLEWVAFIRYDGSNKYYADSVKGRFTISRDNSKNTLYLQMNSLRAEDTAVYYCAKETVTTNYYYYMDVWGKGTTVTVSSGGGGSGGGGSGGGGSDVVMTQSPLSLPVTLGQPASISCRSSRSLEYNDGNTYLNWFHQRPGQSPRRLIYKVSNRDSGVPDRFSGSGSDTDFTLKISRVEAEDVGIYYCMQGTHWPLTFGQGTRLEIK
# notes: as for B1
# B3: EP35-C6 scFv (scFv)
# scFv: QVQLVESGGGVVQPGGSLRLSCAASGFPFSRFGIHWVRQAPGKGLDWVAFIRTDGGSQHYADSVKGRFTISRDNSENMVYLQMNSLRVDDTALYYCAKDPPRVTGNTGYDYDWGQGVQVTVSSGGGGSGGGGSGGGGSDIVMTQSPDSLAVSLGERATINCKSSQSVLYSANNKNCLAWYQQKSGQPPKLLIYWASTRESGVPGRFSGSGSGTDFTLTISSLQAEDVAVYYCQQYYSPPRTFGQGTKLEIK
# notes: VH-VL orientation; also called EP35-C06; not shown: C-terminal flag and 6xHIS tag
# B4: EP35-D6 scFv (scFv)
# scFv: QVQLVQSGTEVKKPGASVKVSCKASGYTFTNNAITWVRQAPGQGLEWMGYISTSSDNINYAQKFRGRLTLTTDTSTGTAYMELSSLRSDDTATYYCARDGIFGGRDDPWGQGTLVTVSSGGGGSGGGGSGGGGSDIVMTQSPSSLSASVGDRVTITCQASQDISNYLNWYQQKPGKAPKLLIYDASNLETGVPSRFSGSGSETDFTITISSLQPEDIATYYCQQYDNLPLTFGGGTKVR
# notes: as for B1
# B5: EP97-A10 scFv (scFv)
# scFv: QVQLVQSGAEVKRPGASVKVSCKASGYTFTSYGISWVRQAPGQGLEWMGWISAYNGNTNYAQKLQGRVTMTTDTSTSTAYMELRSLRSDDTAVYYCARDPGIAVAGTVDYWGQGTLVTVSSGGGGSGGGGSGGGGSEIVMTQSPATLSVSPGEGVTLSCRASQSVSSNLAWYQQRPGQAPRLLIYGASIKATDVPDRFSGGGSGTDFTLSISNVQSEDFAVYYCQQYHTWTPVTFGGGTKVEIK
# notes: as for B1
# B6: EP160-E03 scFv (scFv)
# scFv: EVQLVQSGGGVVQPGKSLRLSCAASGFTFSSYGMHWVRQAPGKGLEWVAVIWYDGSNKYYADSVKGRFTISRDNSKNTLYLQMNSLRAEDTAVYYCARDGWTGFDYWGQGTTVTVSSGGGGSGGGGSGGGGSEIVLTQSPATLSVSPGEGVTLSCRASQSVSSNLAWYQQRPGQAPRLLIYGASIKATDVPDRFSGGGSGTDFTLSISNLQSEDFAVYYCQQYHTWPPVTFGGGTKVEIK
# notes: as for B1
# B7: EP160-G05 scFv (scFv)
# scFv: EVQLVQSGAEVKKPGASVKVSCKASGYTFTSYGISWVRQAPGQGLEWMGWISAYNGNTNYAQKLQGRVTMTTDTSTSTAYMELRSLRSDDTAVYYCARDPSMDVWGQGTTVTVSSGGGGSGGGGSGGGGSEIVLTQSPATLSVSPGERATLSCRASQSVSSNLAWYQQKPGQAPRLLIYGASTRATGIPARFSGSGSGTEFTLTISSLQSEDFAVYYCQQYNSWPPITFGQGTRLEIK
# notes: as for B1
# B8: EP97-G05 scFv (scFv)
# scFv: EVQLVQSGAEVKKPGASVKVSCKASGYTFTSYGISWVRQAPGQGLEWMGWISAYNGNTNYAQKLQGRVTMTTDTSTSTAYMELRSLRSDDTAVYYCARDYGDPSGDDYWGQGTLVTVSSGGGGSGGGGSGGGGSEIVLTQSPATLSVSPGEGVTLSCRASQSVSSNLAWYQQRPGQAPRLLIYGASIKATDVPDRFSGGGSGTDFTLSISNLQSEDFAVYYCQQYHTWPPVTFGGGTKVEIK
# notes: VH-VL orientation; also called EP097-G05; not shown: C-terminal flag and 6xHIS tag
# B9: EP97-B03 scFv (scFv)
# scFv: QLVQSGAEVKKPGASVKVSCKASGYTFSSYGITWVRQAPGQGLEWMGWISAYNGNTNYAQKFQGRVTLTTDTSTSIAYMELRSLTSDDTAVYYCATGGQEDYWGQGTLVTVSSGGGGSGGGGSGGGGSEIVLTQSPATLSVSPGERATLSCRASQSVSSNLAWYQQKPGQAPRLLIYGASTRATGIPARFSGSGSGTEFTLTISSLQSEDFAVYYCQQYNSWPPLTFGGGTKVEIK
# notes: as for B1
# B10: EP35-E6 scFv (scFv)
# scFv: QVQLVESGGALVQPGGSLRLSCVVSGFPFSTAWMNWVRQAPGKGLEWVARIKSEAHGGTTHYAPPVQGRFTISRDDSKNTVSLQMNSLKTEDTGVYYCGDFQWGQGTLVTVSSGGGGSGGGGSGGGGSVIWMTQSPSSLSASVGDRITITCQASQDISNFLNWYQQKPGEAPKLLLYDASNLERGVPSRFSGGGSGTDFTLTISSLQPEDIATYFCQQYDNLPLTFGGGTKVEIK
# notes: as for B1
# B11: EP35-B05 scFv (scFv)
# scFv: QVQLVQSGAEVKKPGASVKVSCKASGYTFTSYGISWVRQAPGQGLEWMGWISAYNGNTNYAQKLQGRVTMTTDTSTSTAYMELRSLRSDDTAVYYCARDSGNSPIDYWGQGTLVTVSSGGGGSGGGGSGGGGSEIVMTQSPATLSVSPGEGVTLSCRASQSVSSNLAWYQQRPGQAPRLLIYGASIKATDVPDRFSGGGSGTDFTLSISNLQSEDFAVYYCQQYHTWPPVTFGGGTKVEIK
# notes: VH-VL orientation; also called EP35-B5; not shown: C-terminal flag and 6xHIS tag
# B12: EP160-C07 scFv (scFv)
# scFv: B11 scFv with V2M, S100A, G101V, N102A, S103G, P104S, I105R, D106G, M137L, G234E
# notes: VH-VL orientation; also called EP160-007; not shown: C-terminal flag and 6xHIS tag
# B13: EP97-F01 scFv (scFv)
# scFv: B11 scFv with S100H, G101I, N102A, S103A, P104A, I105G, S209T
# notes: as for B1
# B14: EP35-C8 scFv (scFv)
# scFv: B11 scFv with R87G, N102S, P104D, I105L, R172K, I181M, N210S
# notes: VH-VL orientation; also called EP35-C08; not shown: C-terminal flag and 6xHIS tag
# B15: EP35-F7 scFv (scFv)
# scFv: B6 scFv with K16R, T102K
# notes: also called EP35-F07; not shown: C-terminal flag and 6xHIS tag
# B16: EP97-A01 scFv (scFv)
# scFv: B6 scFv with K16R, R19K, T102K
# notes: as for B1
# Biological target: T1, full-length human CD22 fused with flag …
# Assay: FACS, scFv titrated on CD22-expressing cells, anti-His Alexa 488
# Experimental: The diluted samples were incubated with CD22-expressing HEK293 cells (CD22/HEK293 cells) in 96 wells plate on ice for 1 hour. Cells were spun down at 1200 rpm for 5 minutes at 4° C. to remove unbound antibodies. Cells were then washed once with 200 μL of full medium per well. […] Samples were then spun down at 1200 rpm for 5 minutes at 4° C. and washed twice with 200 uL of 1×PBS per well. The resultant samples were reconstituted in 200 uL of 1×PBS and read on Guava EasyCyte.
row,EC50,Binder
1,0.68 nM,B1
2,10.4 nM,B2
3,19.3 nM,B3
4,47 nM,B4
5,1 nM,B5
6,6.8 nM,B6
7,2.9 nM,B7
8,3.3 nM,B8
9,0.7 nM,B9
10,14.2 nM,B10
11,77 nM,B11
12,5.2 nM,B12
13,10 nM,B13
14,4.6 nM,B14

# Biological target: T2, human CD22-Fc fusion protein
# Assay: SPR Biacore T200; CD22-Fc captured on Protein G chip, scFv as analyte;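 further: run in 1×HBST buffer, with the response of reference flow cell 1 subtracted from the CD22 capture cell and kinetics fitted in Biacore T200 evaluation software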
# Experimental: The assay was run with Biacore T200 control software version 2.0. For each cycle, 1 μg/mL of human CD22-Fc fusion protein was captured for 60 seconds at flow rate of 10 ul/min on flow cell 2 in 1×HBST buffer on Protein G sensor chip. […] The flow cells were then regenerated with Glycine pH 2 for 60 seconds at flow rate of 30 ul/mins. […] The kinetics of scFvs binding to CD22 protein was analyzed with Biacore T200 evaluation software 3000. The specific binding response unit was derived from subtraction of binding to reference flow cell 1 from CD22 captured flow cell 2.
Kd,koff,kon,Binder
1.84 nM,0.000112 s⁻¹,60900 M⁻¹ s⁻¹,B1
15.8 nM,0.000985 s⁻¹,62500 M⁻¹ s⁻¹,B3
3.57 nM,0.000145 s⁻¹,40500 M⁻¹ s⁻¹,B5
11.3 nM,0.00098 s⁻¹,86900 M⁻¹ s⁻¹,B15
5.52 nM,0.00164 s⁻¹,297000 M⁻¹ s⁻¹,B6
14.2 nM,0.00101 s⁻¹,71300 M⁻¹ s⁻¹,B16
0.166 nM,4.19e-05 s⁻¹,252000 M⁻¹ s⁻¹,B8
0.846 nM,0.000318 s⁻¹,376000 M⁻¹ s⁻¹,B9
0.219 nM,0.000195 s⁻¹,888000 M⁻¹ s⁻¹,B13
